In article PMC7251212 one finds KD, high-affinity interaction (two-state model) and KD, low-affinity interaction (two-state model) data, which are given here for one molecule.

This assay concerns the target recombinant TdfH (Neisseria gonorrhoeae TonB-dependent transporter, NGO0952) (Neisseria gonorrhoeae). The experiment in a line: ITC; Nano ITC, 25°C, 1x PBS with 0.05% DDM; TdfH (300 μl, 20 μM) in the cell, CP sample (200 μM) in 20 injections of 2.5 μl; fitted with NanoAnalyze to a two-state (multisite) model, TKO to a single-site model. On the technique in general: In ITC the heat of successive injections is recorded.

B1: human calprotectin (heterodimer of S100A8 and S100A9) (complex)
chain 1: MLTELEKALNSIIDVYHKYSLIKGNFHAVYRDDLKKLLETECPQYIRKKGADVWFKELDINTDGAVNFQEFLILVIKMGVAAHKKSHEESHKE
chain 2: KMSQLERNIETIINTFHQYSVKLGHPDTLNQGEFKELVRKDLQNFLKKENKNEKVIEHIMEDLDTNADKQLSFEEFIMLMARLTWASHEKMHEGDEGPGHHHKPGLGEGTP
With B1, the KD, high-affinity interaction (two-state model) is 0.004 µM and the KD, low-affinity interaction (two-state model) amounted to 35 µM.
